Data on 2 substances can be found in patent US20230310628A1, “Multi-Targeted Multi-Valent Ligand Drug Particles for the Treatment and Prevention of Diseases and Conditions” (priority 2017, published 2023).

Several values for one entry are separate records, joined by “and”; a condition that tells them apart may be missing. Identical values can stand only once.

Experiment [1] has as its target epidermal growth factor receptor (EGFR) (human) (UniProt P00533). As to the kind of experiment: dose-uptake, fluorometry of lysed cells, 37 °C, 4 hr; MDA-468 cells (EGFR overexpressed, negligible HER2); 20 cetuximab-Fab′ and 10 F5 scFv per liposome.
Experiment [2] shares this target. As to the kind of experiment: dose-uptake, fluorometry of lysed cells, 37 °C, 4 hr; MDA-468 cells (EGFR overexpressed, negligible HER2); 20 cetuximab-Fab′ and 15 F5 scFv per liposome.
Experiment [3] shares this target. As to the kind of experiment: dose-uptake, fluorometry of lysed cells, 37 °C, 4 hr; MDA-468 cells (EGFR overexpressed, negligible HER2); 10 cetuximab-Fab′ and 5 F5 scFv per liposome.
The target is the same in experiment [4]. As to the kind of experiment: dose-uptake, fluorometry of lysed cells, 37 °C, 4 hr; MDA-468 cells (EGFR overexpressed, negligible HER2); 10 cetuximab-Fab′ and 10 F5 scFv per liposome.
Experiment [5] has the same target. As to the kind of experiment: flow cytometry (MFI) of DiD-labelled liposomes, 75 µM PL, 37 °C, 4 hr; MDA-468 cells (EGFR overexpressed, negligible HER2). A general note: In flow cytometry, cells or beads pass a laser one at a time.
Experiment [6] deals with human epidermal growth factor receptor 2 (HER2) (human) (UniProt P04626). Briefly: dose-uptake, fluorometry of lysed cells, 37 °C, 4 hr; SK-BR-3 cells (HER2 overexpressed, negligible EGFR).
In experiment [7] the target is epidermal growth factor receptor (EGFR) (human) (UniProt P00533). As to the kind of experiment: dose-uptake, fluorometry of lysed cells, 37 °C, 4 hr; MDA-468 cells (EGFR overexpressed, negligible HER2); 20 cetuximab-Fab′ and 5 F5 scFv per liposome.
The target of experiment [8] is human epidermal growth factor receptor 2 (HER2) (human) (UniProt P04626). Briefly: dose-uptake, fluorometry of lysed cells; SK-BR-3 cells; 10 F5 scFv per liposome.
Experiment [9] has the same target. Briefly: flow cytometry (MFI) of DiD-labelled liposomes, 75 µM PL, 37 °C, 4 hr; BT-474 cells; mono-targeted counterpart with 5 F5 scFv per liposome.
Experiment [10] shares this target. Briefly: dose-uptake, fluorometry of lysed cells, 37 °C, 4 hr; BT-474 cells; 10 F5 scFv per liposome.
For experiment [11] the target is unchanged. As to the kind of experiment: flow cytometry (MFI) of DiD-labelled liposomes, 75 µM PL, 37 °C, 4 hr; MKN-7 cells (moderate HER2 and EGFR).
The target is the same in experiment [12]. Briefly: dose-uptake, fluorometry of lysed cells, 37 °C, 4 hr; BT-474 cells; 15 F5 scFv per liposome.
Experiment [13] shares this target. As to the kind of experiment: dose-uptake, fluorometry of lysed cells, 37 °C, 4 hr; MKN-7 cells; 10 F5 scFv per liposome.
The target in experiment [14] is epidermal growth factor receptor (EGFR) (human) (UniProt P00533). Briefly: dose-uptake, fluorometry of lysed cells, 37 °C, 4 hr; MDA-468 cells (EGFR overexpressed, negligible HER2); 5 F5 scFv per liposome; no significant uptake compared to non-targeted liposomes.
For experiment [15] the target is unchanged. Briefly: dose-uptake, fluorometry of lysed cells, 37 °C, 4 hr; MDA-468 cells (EGFR overexpressed, negligible HER2); 15 F5 scFv per liposome; no significant uptake compared to non-targeted liposomes.
Experiment [16] concerns the target human epidermal growth factor receptor 2 (HER2) (human) (UniProt P04626). As to the kind of experiment: dose-uptake, fluorometry of lysed cells, 37 °C, 4 hr; MKN-7 cells.
Experiment [17] shares this target. As to the kind of experiment: dose-uptake, fluorometry of lysed cells, 37 °C, 4 hr; SK-BR-3 cells; plateau at ˜200 µM PL.
Experiment [18] shares this target. Briefly: dose-uptake, fluorometry of lysed cells, 37 °C, 4 hr; MKN-7 cells; 15 F5 scFv per liposome.
For experiment [19] the target is unchanged. As to the kind of experiment: dose-uptake, fluorometry of lysed cells; SK-BR-3 cells; 15 F5 scFv per liposome.
For experiment [20] the target is unchanged. As to the kind of experiment: dose-uptake, fluorometry of lysed cells, 37 °C, 4 hr; MKN-7 cells; 5 F5 scFv per liposome.
The target is the same in experiment [21]. As to the kind of experiment: dose-uptake, fluorometry of lysed cells, 37 °C, 4 hr; BT-474 cells; 5 F5 scFv per liposome.
Experiment [22] has as its target epidermal growth factor receptor (EGFR) (human) (UniProt P00533). Briefly: dose-uptake, fluorometry of lysed cells, 37 °C, 4 hr; MDA-468 cells (EGFR overexpressed, negligible HER2); 10 F5 scFv per liposome; no significant uptake compared to non-targeted liposomes.

As to “anti-HER2 and anti-EGFR dual-targeted immunoliposomes”, the Anti-EGFR Lg/Cell Max (ligands per cell) was determined as 1.1e+06 ligands/cell in experiment [1]; 1.2e+06 ligands/cell in experiment [2]; 270000 ligands/cell in [3]; 220000 ligands/cell in experiment [4]; 1.2e+06 ligands/cell in experiment [7]. Besides, the LS/Cell Max (liposomes per cell) (liposomes/cell) in experiment [1] came out at 53000; in [2], 59000; in experiment [3] it was 27000; in experiment [4], 22000; in experiment [7] it was 61000. This substance gave a fold binding over non-targeted liposomes (NT) in [5] of 500 fold. In experiment [6], the F5 scFv per cell is 2e+06 ligands/cell and 3e+06 ligands/cell.
For the substance “anti-HER2 F5 scFv-conjugated immunoliposomes”, the observed cellular uptake (liposomes per cell) (liposomes/cell) in experiment [8] and in experiment [19] was 230000 throughout. Besides, the fold binding over non-targeted liposomes (NT) in [9] is 200 fold; in [11] it was 300 fold. Moreover, the LS/Cell Max (liposomes per cell) (liposomes/cell) in [10] was found to be 72000; in [12], 68000; in experiment [13], 4900; in experiment [14], 5300; in experiment [15], 8000; in experiment [18], 4100. For the same substance, the figures for the LS/Cell Max (liposomes per cell) (liposomes/cell) in experiment [20], in experiment [21] and in [22] were 8100, 40000 and 1100, respectively. In addition, the liposomes per cell (liposomes/cell) in experiment [16] was less than 20000. Further, the F5 scFv per cell at the plateau in [17] was determined as 3e+06 ligands/cell. For the same substance, the liposomes per cell at the plateau (liposomes/cell) in experiment [17] is 200000 and 300000.
